The values that follow come from the nanobody polyreactivity screen of Harvey et al. (2022).

This data set in a line: yeast display, Sf9 membrane polyspecificity reagent, FACS + sequencing; frameworks hold sequencing errors. The method, boiled down: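 Genes from sorted yeast were amplified by colony PCR, read by MiSeq 2 × 250 sequencing and filtered on CDR length. These cells carried a synthetic nanobody library in Saccharomyces cerevisiae BJ5465 and were sorted by FACS into low and high (top ~1%) gates on anti-HA and streptavidin fluorescence. Polyreactivity is labelled according to the gate of origin.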
“QVQLVESGGGLVQAGGSLRLSCADSGRTSRVYAMGWYRQEPAKERELVAAITWRGGNTYYADSVKGRFTISRDNAKNTVYLQMNSLKPEDTAVYYCAADPLSYGSWHGDSWGQGTQVTLSS”: the “polyreactivity (PSR sort gate)” value was “high polyreactivity”. Turning to “QVQLVDSGGGLVQAGGSLRFSCAASGSIFPVNVMGWYRQAPGKERELVADITSTGTYYADSVKGRFTISRDNAKNTDYLQMNSLKPEDTAVYYCAKAGGSWYRRYYYWGQGTQVTVSS”, the “polyreactivity (PSR sort gate)” value is recorded as “high polyreactivity”.

With “QVQLVESGGGLVQAGGSLRLSCAASGFISPSYDMGWYRQAPGKEWELVAAIRSSDGSTYYADSVKGRFTISRDNAKNTVYLQMNSLKPEDTAVYYCNKGVVLTLYVGMDYWGQGTQVTVSS”, the “polyreactivity (PSR sort gate)” value is reported as “low polyreactivity”. Turning to “QVQLVESGGGLVQAGGSLRLSCAASGSTFTRNAMGWYRQAPGKERELVAAISSRGTSTYYADSVKGRFTISRDNAKNTVYLQMNSLKPEDTAVYYCAAVGVKQYLGGNPFDYWGQGTQVTVSS”, the “polyreactivity (PSR sort gate)” value is recorded as “high polyreactivity”. To “QDHLVESGGGLVQAGGSLRLSCAASGSISWKNAMGWYRQAPGKERELVAAISSTVTYYADSVKGRFTISRDNAKNTVYLQMNSLKPEDTAVYYCAAVYLGYTTLYTGDYCGQGTQVTVSS” belongs “low polyreactivity”; to “QVQLVESGGGLVQAGGSLRLSCAASGSIFGYYAMGWYRQAPGKERELVAAIRGSSGSTYYADSVKGRFTISRDNAKNTVYLQMNSLKPEDTAVYYCAADYRTYVYVYGFRHFDYWGQGTQVTVSS”, “low polyreactivity”.

Consider “QEQLVQSAGGLVQAGGSLPLSCAASGSIIISNAMGWYRQAPGKERELVAAISRSGARTYYADSVKGRFTISRDNAKNTVYLQMNSLKPEDTAVYSCAVDGYSPYKYDYWGQGTLVTVSS”, for which the “polyreactivity (PSR sort gate)” value was “high polyreactivity”.

Turning to “QVQLVESGGGLVQAGGSLRLSCAASGSIFITYAMGWYRQAPGKERELVAAIRRGGRTNYADSVKGRFTISRDNAKNTVYLQMNSLKPEDTAVYYCAAEFRTGWPYYPDYAYDYWGQGTQVTVSS”, the “polyreactivity (PSR sort gate)” value is on record as “low polyreactivity”. Next, “QVQLVESGGGLVQAGGSLRLSCAASGSIFDPNAMGWYRQAPGKERELVAAINSGGSTDYADSVKGRFTISRDNAKNTVYLQMNSLKPEDTAVYYCNAEYGYSGVGDDYWGQGTQVTVSS”: “low polyreactivity”. Next, “QVQLVESGGGLVQAGGSLRLSCAASGRTIWYNAMGWYRQAPGKERELVAVISSGAITYYADSVKGRFTFSRDNGKNTVYLQMNSLKPEDTAFYYCAARSYLSLIDYWGQGTQVNVSS”: “high polyreactivity”; “QLQLVESGGGLVQAGGSLRLSCAASGSIFNQYAMGWYRQAPGKERELVAAISSGSTYYADSVKGRFIISRDNAKNTVYLQMFSLKPEDTAVYYCAAGRNRRSSGIYVSKYWGQGTQETVSS”: “high polyreactivity”; “QVKLVESGGGLVQAGGSLRLSCAASGIIFYPNALGWYRQAPGKERELVAAITSDGSTYYADSVKGRFTISRDNAKNTVYLQMNSLKPEDTAVYYCGAWDDYGYDYWGQGTQVTVSS”: “low polyreactivity”.

In the case of “QVQLVESGGGLDQAGGSLRLSCAASGSIFVGYAMGWYRQAPGKERELVASINYSGGTTDYADSVKGRFTISRDNAKNTVYLQMHSLKPEDTAVYYCAKTAVDCSFTKGVDYDYWGQGTQVTVSS”, the “polyreactivity (PSR sort gate)” value is given as “low polyreactivity”. To “QVQLVESGVGLVQAGGSLRLSCAASGSTFYSNAMGWNRQAPGKERELVASISWSSGSTYYADSVKGRFTISRDNAKNTVYLQMNSLKPEDTAVYYCATDAGGPYRFGYWGQGTQVTVSS” belongs “low polyreactivity”; to “QVQLVESGGGLVQAGGSLRLSCAASGSTFPRNAMGWYRQAPGKERELVAAISYSGGRTYYADSVKGRFTISRDNAKNTVYLQMNSLKPEDTAVYYCAAQPYSLVRGKSYGYWGQGTQVTVSS”, “high polyreactivity”; to “QVQLVESGGGLVQAGGSLRLSCAASGRIFFDYAMGWYRQAPGKERELVADISYNGGSTNYADSVKGRFTISRDNAKNTLYLQMNSLKPEDTADYYCNRAFVPVYDLDYYWGQGTQVTVSS”, “low polyreactivity”.
